The text below walks through data of article PMC101403.

What all share (assay): purified protein
Conditions in all cases: Mg2+ ([…] MgCl2)

Substrate in data set [1]: CC(O)(CC(=O)O)CC(=O)SCCNC(=O)CCNC(=O)[C@H](O)C(C)(C)COP(=O)(O)OP(=O)(O)OC[C@H]1O[C@@H](n2cnc3c(N)ncnc32)[C@H](O)[C@@H]1OP(=O)(O)O
Substrate in data set [2]: CC(=O)SCCNC(=O)CCNC(=O)[C@H](O)C(C)(C)COP(=O)(O)OP(=O)(O)OC[C@H]1O[C@@H](n2cnc3c(N)ncnc32)[C@H](O)[C@@H]1OP(=O)(O)O
Substrate in data set [3]: CC(C)(COP(=O)(O)OP(=O)(O)OC[C@H]1O[C@@H](n2cnc3c(N)ncnc32)[C@H](O)[C@@H]1OP(=O)(O)O)[C@@H](O)C(=O)NCCC(=O)NCCSC(=O)CCC(=O)O
Substrate in data set [4]: CC(C)(COP(=O)(O)OP(=O)(O)OC[C@H]1O[C@@H](n2cnc3c(N)ncnc32)[C@H](O)[C@@H]1OP(=O)(O)O)[C@@H](O)C(=O)NCCC(=O)NCCS

B1: Y87G2A.14 Nudix hydrolase (coenzyme A diphosphatase) (Caenorhabditis elegans) (protein)
chain: MKCVVSRADDLKRMLDLSDVPTKSQGEQDAGVLILLHDDGSEKLKVLLCVRSRQLRRHPGEVCFPGGMMDDEDGQNVRRTAIREAYEEVGVNENDDYLVLGNLPAFRARFGVLIHPTVALLRRPPTFVLSIGEVESIFWIPLSQFLEDTHHSTFLIDEFYMVHVFQFDEYPTTYGVTALMCIVVAIGLLGKLPNFNLMGNLTISDMLDKHLDSIEIIRHVYEFASRKFEPKSKI
What is called Km is the substrate concentration at which the rate is half of its maximum. Usually kcat stands for the maximal rate divided by the concentration of active sites. A word on the kcat/Km: it is the turnover number divided by the Michaelis constant. For the protein B1, the Michaelis-Menten constant (Km) was found to be 200 µM in “purified protein [1]”, 230 µM in “purified protein [2]”, 240 µM in “purified protein [3]” and 220 µM in “purified protein [4]”. For the same protein, the kcat is 10.5 s⁻¹ in the data set “purified protein [1]”, 11.8 s⁻¹ in the data set “purified protein [2]”, 12.7 s⁻¹ in “purified protein [3]” and 13.8 s⁻¹ in the data set “purified protein [4]”. For the same protein, the kcat/Km in the data set “purified protein [1]” amounted to 54000 M⁻¹ s⁻¹; in “purified protein [2]”, 51000 M⁻¹ s⁻¹; in “purified protein [3]”, 53000 M⁻¹ s⁻¹; in the data set “purified protein [4]”, 64000 M⁻¹ s⁻¹.
